# Results taken from publication PMC7159914.
# Molecular target: VP3 (capping enzyme) (Rotavirus A, UniProt Q1WK45 1-835)
# Experiment: BLI
binder,measurement,value
GGCUUUUA (ssRNA) [biotinylated 8-mer ssRNA],binding result,binds
